# Reference: the supplement of paper PMC11780869
# Tested on: Bacillus subtilis
# Test: cleaved RNA product abundance (RNA/gDNA barcode ratio) relative to median wild-type variant (ratio to wild type); higher = more accumulation of the downstream cleavage product
# Conditions: experiment (reporter, strain, medium): exp 8a: truncated aprE reporter, strain BJT201 with 2% xylose (RNase J1 expressed); cleavage site: glnRA (positions -5 to +31 mutated)
# Outline: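 Cleaved product abundance was measured with barcoded reporter mRNAs (truncated aprE or tetM) carrying mutagenized RNase Y cleavage-site windows in the B. subtilis chromosome. Cultures in LB at 37°C grew from OD600 0.0003 to 0.3. Gel-selected cleaved RNA was reverse transcribed and barcode-sequenced with genomic DNA barcodes, and the RNA:gDNA barcode ratio per construct was scaled to the median construct bearing the unmutated site.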
row,Sequence,cleaved RNA product abundance
1,CGACATGTCCCGCTTCTTTCATTAATCCGTTAGCAACAGTTTTGCTATATACAATTACCTTTTAAGAGGAGGAAT,0.601
2,CGACATGTCCCGCTTCTTTCATTAATCCGTTAGCAACAGTTTTGCTATATACATATACCTTTTAAGAGGAGGAAT,1.16
3,CGACATGTCCCGCTTCTTTCATTAATCCGTTAGCAACAGTTTTGCTATATACATTTAACTTTTAAGAGGAGGAAT,0.916
4,CGACATGTCCCGCTTCTTTCATTAATCCGTTAGCAACAGTTTTGCTATATACATTTACCATTTAAGAGGAGGAAT,0.522
5,CGACATGTCCCGCTTCTTTCATTAATCCGTTAGCAACAGTTTTGCTATATACATTTACCTTTTAAGAGGAGGAAT,0.814
6,CGACATGTCCCGCTTCTTTCATTAATCCGTTAGCAACAGTTTTGCTATATACATTTACGTTTTAAGAGGAGGAAT,2.01
7,CGACATGTCCCGCTTCTTTCATTAATCCGTTAGCAACAGTTTTGCTATATACATTTACTTTTTAAGAGGAGGAAT,1.18
8,CGACATGTCCCGCTTCTTTCATTAATCCGTTAGCAACAGTTTTGCTATATACATTTAGCTTTTAAGAGGAGGAAT,0.489
9,CGACATGTCCCGCTTCTTTCATTAATCCGTTAGCAACAGTTTTGCTATATACATTTTCCTTTTAAGAGGAGGAAT,0.423
10,CGACATGTCCCGCTTCTTTCATTAATCCGTTAGCAACAGTTTTGCTATATATATTTACCTTTTAAGAGGAGGAAT,0.588
11,CGACATGTCCCGCTTCTTTCATTAATCCGTTAGCAACAGTTTTTCTATATACATTTACCTTTTAAGAGGAGGAAT,0.345
12,CGACATGTCCCGCTTCTTTCATTAATCCGTTAGCAACATTTTTGCTATATACATTTACCTTTTAAGAGGAGGAAT,1.12
13,CGACATGTCCCGCTTCTTTCATTAATCCGTTAGCAACCCTTTTGCTATATACATTTACCTTTTAAGAGGAGGAAT,0.451
14,CGACATGTCCCGCTTCTTTCATTAATCCGTTAGCAACCGTGTTACTATATAAATTTACCTTTTAAGAGGAGGAAT,0.271
15,CGACATGTCCCGCTTCTTTCATTAATCCGTTAGCAACCGTTATGCTATATACATTTACCTTTTAAGAGGAGGAAT,0.316
16,CGACATGTCCCGCTTCTTTCATTAATCCGTTAGCAACCGTTTTGCAATATACATTTACCTTTTAAGAGGAGGAAT,0.344
17,CGACATGTCCCGCTTCTTTCATTAATCCGTTAGCAACCGTTTTGCTAAATACATTTACCTTTTAAGAGGAGGAAT,0.432
18,CGACATGTCCCGCTTCTTTCATTAATCCGTTAGCAACCGTTTTGCTATATACATTTACATTTTAAGAGGAGGAAT,0.523
19,CGACATGTCCCGCTTCTTTCATTAATCCGTTAGCAACCGTTTTGCTATATACATTTACCTTTTAAGAGGAGGAAT,0.617
20,CGACATGTCCCGCTTCTTTCATTAATCCGTTAGCAACCGTTTTGCTTTATACATTTACCTTTTAAGAGGAGGAAT,0.145
21,CGACATGTCCCGCTTCTTTCATTAATCCGTTAGCAACCGTTTTGGTATATACATTTACCTTTTAAGAGGAGGAAT,0.187

row,Sequence,cleaved RNA product abundance
1,CGACATGTCCCGCTTCTTTCATTAATCCGTTAGCAACCGTTTTTCTATATACATTTACCTTTTAAGAGGAGGAAT,0.384
2,CGACATGTCCCGCTTCTTTCATTAATCCGTTAGCAACCTTTTTGCTATATACATTTACCTTTTAAGAGGAGGAAT,1.44
3,CGACATGTCCCGCTTCTTTCATTAATCCGTTAGCAACGGTTGTGCTATATACATTTACCTTTTAAGAGGAGGAAT,0.353
4,CGACATGTCCCGCTTCTTTCATTAATCCGTTAGCAACGGTTTTACTATATACATTTACCTTTTAAGAGGAGGAAT,0.495
5,CGACATGTCCCGCTTCTTTCATTAATCCGTTAGCAACGGTTTTGATATATACATTTACCTTTTAAGAGGAGGAAT,0.515
6,CGACATGTCCCGCTTCTTTCATTAATCCGTTAGCAACGGTTTTGCCATATACATTTACCTTTTAAGAGGAGGAAT,0.202
7,CGACATGTCCCGCTTCTTTCATTAATCCGTTAGCAACGGTTTTGCTATATACATTTACCTTTTAAGAGGAGGAAT,0.387
8,CGACATGTCCCGCTTCTTTCATTAATCCGTTAGCAACGGTTTTGTTATATACATTTACCTTTTAAGAGGAGGAAT,0.364
9,CGACATGTCCCGCTTCTTTCATTAATCCGTTAGCAACTAATTTGCTATATACATTTACCTTTTAAGAGGAGGAAT,1.85
10,CGACATGTCCCGCTTCTTTCATTAATCCGTTAGCAACTAGTTTGCTATATACATTTACCTTTTAAGAGGAGGAAT,1.29
11,CGACATGTCCCGCTTCTTTCATTAATCCGTTAGCAACTATATTGCTATATACATTTACCTTTTAAGAGGAGGAAT,1.45
12,CGACATGTCCCGCTTCTTTCATTAATCCGTTAGCAACTATTATGCTATATACATTTACCTTTTAAGAGGAGGAAT,0.785
13,CGACATGTCCCGCTTCTTTCATTAATCCGTTAGCAACTATTCTGCTATATACATTTACCTTTTAAGAGGAGGAAT,0.838
14,CGACATGTCCCGCTTCTTTCATTAATCCGTTAGCAACTATTTAGCTATATACATTTACCTTTTAAGAGGAGGAAT,1.01
15,CGACATGTCCCGCTTCTTTCATTAATCCGTTAGCAACTATTTTACTATATACATTTACCTTTTAAGAGGAGGAAT,0.726
16,CGACATGTCCCGCTTCTTTCATTAATCCGTTAGCAACTATTTTGATATATACATTTACCTTTTAAGAGGAGGAAT,0.503
17,CGACATGTCCCGCTTCTTTCATTAATCCGTTAGCAACTATTTTGCAATATACATTTACCTTTTAAGAGGAGGAAT,0.531
18,CGACATGTCCCGCTTCTTTCATTAATCCGTTAGCAACTATTTTGCCATATACATTTACCTTTTAAGAGGAGGAAT,0.121
19,CGACATGTCCCGCTTCTTTCATTAATCCGTTAGCAACTATTTTGCTATAAACATTTACCTTTTAAGAGGAGGAAT,1
20,CGACATGTCCCGCTTCTTTCATTAATCCGTTAGCAACTATTTTGCTATATACAATTACCTTTTAAGAGGAGGAAT,1.98
21,CGACATGTCCCGCTTCTTTCATTAATCCGTTAGCAACTATTTTGCTATATACACTTACCTTTTAAGAGGAGGAAT,1.29

row,Sequence,cleaved RNA product abundance
1,CGACATGTCCCGCTTCTTTCATTAATCCGTTAGCAACTATTTTGCTATATACATCTACCTTTTAAGAGGAGGAAT,0.944
2,CGACATGTCCCGCTTCTTTCATTAATCCGTTAGCAACTATTTTGCTATATACATGTACCTTTTAAGAGGAGGAAT,1.19
3,CGACATGTCCCGCTTCTTTCATTAATCCGTTAGCAACTATTTTGCTATATACATTTACATTTTAAGAGGAGGAAT,3.23
4,CGACATGTCCCGCTTCTTTCATTAATCCGTTAGCAACTATTTTGCTATATACATTTACCCTTTAAGAGGAGGAAT,0.937
5,CGACATGTCCCGCTTCTTTCATTAATCCGTTAGCAACTATTTTGCTATATACATTTACCTTTTAAGAGGAGGAAT,1.34
6,CGACATGTCCCGCTTCTTTCATTAATCCGTTAGCAACTATTTTGCTATATACATTTACTTTTTAAGAGGAGGAAT,1.55
7,CGACATGTCCCGCTTCTTTCATTAATCCGTTAGCAACTATTTTGCTATATACATTTAGCTTTTAAGAGGAGGAAT,1.16
8,CGACATGTCCCGCTTCTTTCATTAATCCGTTAGCAACTATTTTGCTATATACGTTTACCTTTTAAGAGGAGGAAT,0.197
9,CGACATGTCCCGCTTCTTTCATTAATCCGTTAGCAACTATTTTGCTATATATATTTACCTTTTAAGAGGAGGAAT,1.42
10,CGACATGTCCCGCTTCTTTCATTAATCCGTTAGCAACTATTTTGCTATCTACATTTACCTTTTAAGAGGAGGAAT,0.108
11,CGACATGTCCCGCTTCTTTCATTAATCCGTTAGCAACTATTTTGCTTTATACATTTACCTTTTAAGAGGAGGAAT,0.459
12,CGACATGTCCCGCTTCTTTCATTAATCCGTTAGCAACTATTTTGGTATATACATTTACCTTTTAAGAGGAGGAAT,0.273
13,CGACATGTCCCGCTTCTTTCATTAATCCGTTAGCAACTATTTTGTTATATACATTTACCTTTTAAGAGGAGGAAT,0.578
14,CGACATGTCCCGCTTCTTTCATTAATCCGTTAGCAACTATTTTTCTATATACATTTACCTTTTAAGAGGAGGAAT,0.613
15,CGACATGTCCCGCTTCTTTCATTAATCCGTTAGCAACTCATTTGCTATATACATTTACCTTTTAAGAGGAGGAAT,1.46
16,CGACATGTCCCGCTTCTTTCATTAATCCGTTAGCAACTCTTTTACTATATACATTTACCTTTTAAGAGGAGGAAT,0.579
17,CGACATGTCCCGCTTCTTTCATTAATCCGTTAGCAACTCTTTTGATATATACATTTACCTTTTAAGAGGAGGAAT,0.51
18,CGACATGTCCCGCTTCTTTCATTAATCCGTTAGCAACTCTTTTGCTATAAACATTTACCTTTTAAGAGGAGGAAT,1.3
19,CGACATGTCCCGCTTCTTTCATTAATCCGTTAGCAACTCTTTTGCTATATACATTTAACTTTTAAGAGGAGGAAT,1.36
